From patent US20120045785A1

Columns and labels:
[1] = molecular target: HtubA/B dimer (hybrid bacterial-bovine tubulin heterodimer) (Prosthecobacter dejongeii); assay: cell-based or functional assay
[2] = molecular target: eukaryotic microtubules; assay: cell-based or functional assay

HtubA/B dimer (hybrid bacterial-bovine tubulin heterodimer) (Prosthecobacter dejongeii), sequence (chain, as listed by the source, chain 1 of 2): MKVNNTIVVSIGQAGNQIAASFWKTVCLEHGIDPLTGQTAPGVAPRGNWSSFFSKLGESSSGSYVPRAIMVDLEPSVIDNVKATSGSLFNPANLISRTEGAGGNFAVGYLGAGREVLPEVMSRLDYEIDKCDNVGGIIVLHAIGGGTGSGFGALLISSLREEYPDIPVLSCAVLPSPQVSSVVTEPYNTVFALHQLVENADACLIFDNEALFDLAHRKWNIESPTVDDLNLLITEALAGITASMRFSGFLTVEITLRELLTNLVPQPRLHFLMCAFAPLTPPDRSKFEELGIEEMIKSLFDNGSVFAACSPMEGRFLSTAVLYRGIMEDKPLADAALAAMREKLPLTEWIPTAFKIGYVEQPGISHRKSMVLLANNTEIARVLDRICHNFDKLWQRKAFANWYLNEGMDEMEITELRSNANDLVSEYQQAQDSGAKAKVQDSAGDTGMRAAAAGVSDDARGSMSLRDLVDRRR
HtubA/B dimer (hybrid bacterial-bovine tubulin heterodimer) (Prosthecobacter dejongeii), sequence (chain, as listed by the source, chain 2 of 2): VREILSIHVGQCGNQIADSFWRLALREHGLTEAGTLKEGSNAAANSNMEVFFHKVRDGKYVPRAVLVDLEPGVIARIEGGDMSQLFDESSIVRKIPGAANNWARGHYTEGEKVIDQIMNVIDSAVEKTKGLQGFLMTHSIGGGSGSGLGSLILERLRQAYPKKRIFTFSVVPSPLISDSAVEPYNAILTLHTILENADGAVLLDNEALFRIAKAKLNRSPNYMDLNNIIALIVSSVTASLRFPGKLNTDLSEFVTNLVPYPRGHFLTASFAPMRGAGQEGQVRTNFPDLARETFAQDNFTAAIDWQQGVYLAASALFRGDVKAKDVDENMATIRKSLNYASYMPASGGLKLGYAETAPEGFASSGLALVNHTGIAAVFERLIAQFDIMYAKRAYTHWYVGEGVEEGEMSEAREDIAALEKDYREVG

Substance: Eg5 (a kinesin-5) motor domain (enzyme)
- rate of ATP binding (MANT-ATP, stopped-flow) [1]: 265 s⁻¹
- rate of ATP binding (MANT-ATP, stopped-flow) [2]: 25 to 30 s⁻¹
